T1: FcγRIIa R (FcγRIIa allotype with Arg at position 131), extracellular domain with C-terminal His tag (human, UniProt P12318 34-217)
T1 construct: extracellular domain; made in FreeStyle293 cells; analyte in the Biacore assay; also called FcγRIIa type R; 2aR
T1 sequence (looked up): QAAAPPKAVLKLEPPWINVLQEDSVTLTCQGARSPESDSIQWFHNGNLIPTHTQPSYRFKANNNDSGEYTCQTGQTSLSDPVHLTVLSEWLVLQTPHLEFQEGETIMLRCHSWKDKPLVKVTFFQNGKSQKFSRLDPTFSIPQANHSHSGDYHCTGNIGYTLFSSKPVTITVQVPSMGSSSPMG

T2: FcγRIIb, extracellular domain with C-terminal His tag (human, UniProt P31994 43-217)
T2 construct: extracellular domain; made in FreeStyle293 cells; analyte in the Biacore assay; also called 2b; FcgRIIb
T2 sequence (looked up): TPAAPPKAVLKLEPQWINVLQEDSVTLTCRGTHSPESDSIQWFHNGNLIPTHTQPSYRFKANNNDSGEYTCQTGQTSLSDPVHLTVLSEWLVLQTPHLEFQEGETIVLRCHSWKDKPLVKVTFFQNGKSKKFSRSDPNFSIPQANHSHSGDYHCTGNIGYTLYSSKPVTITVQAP

B1: GpH7-A5/GpH7-B3 variant A330_11K/GpL16-k0 (antibody, human IgG1, kappa)
heavy 1: not shown
heavy 2: not shown
light: DIVMTQSPLSLPVTPGEPASISCQASESLVHSNRNTYLHWYLQKPGQSPQLLIYKVSNRFSGVPDRFSGSGSGTDFTLKISRVEAEDVGVYYCSQNTHVPPTFGQGTKVEIERTVAAPSVFIFPPSDEQLKSGTASVVCLLNNFYPREAKVQWKVDNALQSGNSQESVTEQDSKDSTYSLSSTLTLSKADYEKHKVYACEVTHQGLSSPVTKSFNRGEC
notes: heterodimerized IgG1, mutation in one H chain only; also called He Ab
B2: GpH7-A5/GpH7-B3 variant A330_15Y/GpL16-k0 (antibody, human IgG1, kappa)
heavy 1: not shown
heavy 2: not shown
light: B1 light
notes: as for B1
B3: GpH7-A5/GpH7-B3 variant N325_15Y/GpL16-k0 (antibody, human IgG1, kappa)
heavy 1: not shown
heavy 2: not shown
light: B1 light
notes: as for B1
B4: GpH7-A5/GpH7-B3 variant Y296_04F/GpL16-k0 (antibody, human IgG1, kappa)
heavy 1: not shown
heavy 2: not shown
light: B1 light
notes: as for B1
B5: GpH7-A5/GpH7-B3 variant Q295_06M/GpL16-k0 (antibody, human IgG1, kappa)
heavy 1: not shown
heavy 2: not shown
light: B1 light
notes: as for B1
B6: GpH7-A5/GpH7-B3 variant P331_13S/GpL16-k0 (antibody, human IgG1, kappa)
heavy 1: not shown
heavy 2: not shown
light: B1 light
notes: as for B1
B7: GpH7-A5/GpH7-B3 variant S337_11K/GpL16-k0 (antibody, human IgG1, kappa)
heavy 1: not shown
heavy 2: not shown
light: B1 light
notes: as for B1
B8: GpH7-A5/GpH7-B3 variant L234_04F/GpL16-k0 (antibody, human IgG1, kappa)
heavy 1: not shown
heavy 2: not shown
light: B1 light
notes: as for B1
B9: GpH7-A5/GpH7-B3 variant I336_18N/GpL16-k0 (antibody, human IgG1, kappa)
heavy 1: not shown
heavy 2: not shown
light: B1 light
notes: as for B1
B10: GpH7-A5/GpH7-B3 variant N325_10E/GpL16-k0 (antibody, human IgG1, kappa)
heavy 1: not shown
heavy 2: not shown
light: B1 light
notes: as for B1
B11: GpH7-A5/GpH7-B3 variant S337_03V/GpL16-k0 (antibody, human IgG1, kappa)
heavy 1: not shown
heavy 2: not shown
light: B1 light
notes: as for B1
B12: GpH7-A5/GpH7-B3 variant S337_06M/GpL16-k0 (antibody, human IgG1, kappa)
heavy 1: not shown
heavy 2: not shown
light: B1 light
notes: as for B1
B13: GpH7-A5/GpH7-B3 variant Y296_06M/GpL16-k0 (antibody, human IgG1, kappa)
heavy 1: not shown
heavy 2: not shown
light: B1 light
notes: as for B1
B14: GpH7-A5/GpH7-B3 variant S337_02A/GpL16-k0 (antibody, human IgG1, kappa)
heavy 1: not shown
heavy 2: not shown
light: B1 light
notes: as for B1
B15: GpH7-A5/GpH7-B3 variant P331_02A/GpL16-k0 (antibody, human IgG1, kappa)
heavy 1: not shown
heavy 2: not shown
light: B1 light
notes: as for B1
B16: GpH7-A5/GpH7-B3 variant T335_05P/GpL16-k0 (antibody, human IgG1, kappa)
heavy 1: not shown
heavy 2: not shown
light: B1 light
notes: as for B1
B17: GpH7-A5/GpH7-B3 variant S239_14T/GpL16-k0 (antibody, human IgG1, kappa)
heavy 1: not shown
heavy 2: not shown
light: B1 light
notes: as for B1
B18: GpH7-A5/GpH7-B3 variant H268_12R/GpL16-k0 (antibody, human IgG1, kappa)
heavy 1: not shown
heavy 2: not shown
light: B1 light
notes: as for B1
B19: GpH7-A5/GpH7-B3 variant S337_04F/GpL16-k0 (antibody, human IgG1, kappa)
heavy 1: not shown
heavy 2: not shown
light: B1 light
notes: as for B1
B20: GpH7-A5/GpH7-B3 variant P331_09D/GpL16-k0 (antibody, human IgG1, kappa)
heavy 1: not shown
heavy 2: not shown
light: B1 light
notes: as for B1
B21: GpH7-A5/GpH7-B3 variant T335_01G/GpL16-k0 (antibody, human IgG1, kappa)
heavy 1: not shown
heavy 2: not shown
light: B1 light
notes: as for B1

Assays:
[1] = target: T1, FcγRIIa R (FcγRIIa allotype with Arg at …); experiment: SPR (Biacore), antibody captured, FcγR analyte; vs GpH7-A5/GpH7-B3/GpL16-k0 = 100
Method: (§1) The heterodimerized antibodies He Abs in which one of the H chains was introduced with an alteration were assayed for their binding activities to each activating FcγR and inhibitory FcγR according to the method described in Example 4. […] The activating FcγRs in FIGS. 26, 27, 28, and 29 are FcγRIa, FcγRIIa (R), FcγRIIa (H), and FcγRIIIa, respectively.
(§2) Analysis of interaction between objective antibody and the FcγR was carried out using Biacore T100 (GE Healthcare). HBS-EP+ (GE Healthcare) was used as the running buffer, and the measurement temperature was set to 25° C. Chips produced by immobilizing the antigen peptide by the amine coupling method to a Series S Sencor Chip CM5 (GE Healthcare), or alternatively, chips produced by allowing preliminarily biotinylated antigen peptides to interact with and immobilize onto a Series S Sensor Chip SA (certified) (GE Healthcare) were used. Antibodies of interest were captured onto an antigen peptide-immobilized chip, and allowed to interact to each FcγR diluted with running buffer. To regenerate and repeatedly use the chip, the antibodies captured on the chip were washed off by reacting 10 mM glycine-HCl, pH 1.5.

[2] = target: T2, FcγRIIb, extracellular domain with …; experiment: as above
Method: as §1, §2

Binder | He/Con_2aR [1] | He/Con_2b [2]
B1 | 110 relative (HeCon Ab = 100) | 95 relative (HeCon Ab = 100)
B2 | 102 relative (HeCon Ab = 100) | 95 relative (HeCon Ab = 100)
B3 | 101 relative (HeCon Ab = 100) | 99.5 relative (HeCon Ab = 100)
B4 | 109 relative (HeCon Ab = 100) | 99.2 relative (HeCon Ab = 100)
B5 | 102 relative (HeCon Ab = 100) | 90.4 relative (HeCon Ab = 100)
B6 | 105 relative (HeCon Ab = 100) | 96.8 relative (HeCon Ab = 100)
B7 | 103 relative (HeCon Ab = 100) | 94.3 relative (HeCon Ab = 100)
B8 | 104 relative (HeCon Ab = 100) | 99.8 relative (HeCon Ab = 100)
B9 | 104 relative (HeCon Ab = 100) | 97.6 relative (HeCon Ab = 100)
B10 | 105 relative (HeCon Ab = 100) | 95.9 relative (HeCon Ab = 100)
B11 | 106 relative (HeCon Ab = 100) | 98.9 relative (HeCon Ab = 100)
B12 | 105 relative (HeCon Ab = 100) | 96.7 relative (HeCon Ab = 100)
B13 | 101 relative (HeCon Ab = 100) | 87.8 relative (HeCon Ab = 100)
B14 | 105 relative (HeCon Ab = 100) | 97.2 relative (HeCon Ab = 100)
B15 | 106 relative (HeCon Ab = 100) | 99.5 relative (HeCon Ab = 100)
B16 | 104 relative (HeCon Ab = 100) | 99.9 relative (HeCon Ab = 100)
B17 | 103 relative (HeCon Ab = 100) | 97.3 relative (HeCon Ab = 100)
B18 | 105 relative (HeCon Ab = 100) | 89.8 relative (HeCon Ab = 100)
B19 | 105 relative (HeCon Ab = 100) | 97.8 relative (HeCon Ab = 100)
B20 | 102 relative (HeCon Ab = 100) | 94.3 relative (HeCon Ab = 100)
B21 | 104 relative (HeCon Ab = 100) | 96.7 relative (HeCon Ab = 100)
